Assay: yeast display, Sf9 membrane polyspecificity reagent, FACS + sequencing; frameworks hold sequencing errors
Summary of the method: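 Nanobodies from a synthetic yeast display library (Saccharomyces cerevisiae BJ5465), induced 36–48 hours with galactose, were stained 1 hour at 4 °C with 10% biotinylated, detergent-solubilized Sf9 membrane reagent, enriched on streptavidin microbeads, then FACS-sorted. Anti-HA (expression) and streptavidin (reagent binding) fluorescence set low and high (top ~1%) gates. Polyreactivity labels come from the gate of origin. Genes were colony-PCR amplified, MiSeq 2 × 250 sequenced and filtered by CDR length.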

| Sequence | polyreactivity (PSR sort gate) |
| --- | --- |
| QVQLVESGGGLVQAGGSLRLSCAASGRSFYTNAMGWYRPAPGKERELLAAIRRSGTSTYYADSVKGRFTISRDNAYNTVYLQMNSLKPEDTAVYYCAALRSLLYRTYGYWGLGTQVTVSS | low polyreactivity |
| QVQLVESGGGLVQAGGSLRLSCAASGRSYRRNTMGWYRQAPGKERELVAAISNRGTSTYYADSVKGRFTISRDNEKNTVYLLMNSLKPEDTAVYYCAARGVRSYFFPYNYWGQGTQVTVSS | high polyreactivity |
| QVQLVESGGGLVQAGGSLRLSCAASGRTCSNYAMGWYRQAPGKERELVAAISYSVGSTYYADSVKGRFTIARDNAKNTVYLQMNSLKPEDTAVYYCNAKSRPHYAWYRYDYWGQGTQVTVSS | high polyreactivity |
| QVQLVESGGGLVQAGGSLRLSCAASGRTCSRYAMGLYRQAPGKERELFAAISKSSGTTSYADSVKGRFSISRDNAKNTVYLQMIRLNPEDTAVYYFAAGITGRYYGVRFSEDYWGQGTQVTVSS | high polyreactivity |
| QVQLVESGGGLVQAGGSLRLSCAASGRTCYINAMGWYRQAPGKERELVAAISSGGSTNYADSVKGRFTISRDNAKNTVYLQMNSLKPEDTAVYYCNAKYYQGTPVELDYWGQATQVTVSS | low polyreactivity |
| QVQLVESGGGLVQAGGSLRLSCAASGRTDFNTMGWYRQAPGKERELVAAITSTGRTYYADSVKGRFTISRDNAKNTVYLQMNSLKPEDTAVYFCAAVWRYKGLLLPSYYYWGQGTQVTVSS | high polyreactivity |
| QVQLVESGGGLVQAGGSLRLSCAASGRTFAAYAMGWYRQAPGKERELVAAIRRGGTTNYADSVKGRFTISRDNAKNTVYLQMNSLKPEDTAVYYCAALAPYSRSWVTYDYWGQGSQVTVSS | low polyreactivity |
| QVQLVESGGGLVQAGGSLRLSCAASGRTFAAYAMGWYRQAPGKERELVAAIRRGGTTNYADSVKGRFTISRDNAKNTVYLQMNSLKPEDTAVYYCAALAPYSRSWVTYDYWGQGTQVTVSS | low polyreactivity |
| QVQLVESGGGLVQAGGSLRLSCAASGRTFADNAMGWYRQAPGKERELVASISSGTSTNYADSVKGRFTISRDNAKNTVYLQMNSLKPEDTAVYYCNAYGPIWYTAVLGVGRYYGWTDYWGQGTQVTVSS | low polyreactivity |
| QVQLVESGGGLVQAGGSLRLSCAASGRTFAFHDRGWYRQAPGNERELVAALTSVASTYYADSVKGRFTISRDNAKNTVYLQMNSLKPEDTAVYYCAADTRSLRPRYQLYGEDSWGQGTQVTVSS | low polyreactivity |
| QVQLVESGGGLVQAGGSLRLSCAASGRTFAFYAMGWYRQAPGKERELVASISSSGDRTYYADSVKGRFTISRDNAKNTVYLQMNSLKPEDTAVYYCAARWSYTYYYWGQGTQVTVSS | high polyreactivity |
| QVQLVESGGGLVQAGGSLRLSCAASGRTFAFYAMGWYRQAPGKERELVAVITKSGGITYYADSVKGRFTISRDNAKNTVYLQMKSLKPEDTAVYYCAADYRYTPNYLYYYWGQGTQVTVSS | low polyreactivity |
| QVQLVESGGGLVQAGGSLRLSCAASGRTFAFYGMGWYRQAPGKERELVATIRGTGGSTYYADSVKGRFTISRDNAKNTVYLQMNSLKPEDTAVYYCNKYLGIQVGSVPHDYWGQGSQVTVSS | high polyreactivity |
| QVQLVESGGGLVQAGGSLRLSCAASGRTFAGYAMGWYRQAPGKERELVATISRNGGSTYYADSVKGRFTISRDNAKNTVYLQMNSLKPEDTAVYYCAADRRGVVRFSRYRGIYDYWGQGTQVTVSS | high polyreactivity |
| QVQLVESGGGLVQAGGSLRLSCAASGRTFAHYAMGWYRQAPGKERELVAVITSGGITYYADSVKGRFTISRDNAKNTVYLQMNSLKPEDTAVYYCNVYSYYYSYGSPYDYWGQGTQVTVSS | high polyreactivity |
| QVQLVESGGGLVQAGGSLRLSCAASGRTFAIYAMGWYRQAPGKERELVAAISGSGGSTYYADSVKGRFTISRDNAKNTVYLQMNSLKPEDTAVYYCAKRVRGHRYDYWGQGTQVTVSS | high polyreactivity |
| QVQLVESGGGLVQAGGSLRLSCAASGRTFAIYAMGWYRQAPGKERELVATIRGGSTYYADSVKGRFTISRDNAKNTVYLQMNSLKPEDTAVYYCAAEFLYASVYYSYWGQGTQVTVSS | high polyreactivity |
| QVQLVESGGGLVQAGGSLRLSCAASGRTFAIYAMGWYRQAPGKERELVAVINYSGDRTYYADSVKGRFTISRDNAKNTVYLQMNSLKPEDTAVYYCAAVLEYTSDYLSGENDYWGQGTQVTVSS | low polyreactivity |
| QVQLVESGGGLVQAGGSLRLSCAASGRTFAKSAMGWSRQAPGKERELVAAIRWSGGSTYYADSVKARFTISRDNAKNTVYLQMNSLKPEDTAVYYCATERFLLGLGYDYWGQGTQVTVSS | high polyreactivity |
| QVQLVESGGGLVQAGGSLRLSCAASGRTFAKYAMAWYRQAPGKERELVAAINSSGGSTYYADSVKGRFTISRDNAKNTVYLQMNSLKPEDTAVYFCAALGIGSYRRYSGYDYWGQGTQVTVSS | low polyreactivity |

| Sequence | polyreactivity (PSR sort gate) |
| --- | --- |
| QVQLVESGGGLVQAGGSLRLSCAASGRTFAKYAMGLYRQAPGKERELVAAITRGDTTNYADSVKGRFTISRDNAKNTVYLQMNSLKPEDTAVYYCAATPDPPHTYEYWGQGTQVTVSS | low polyreactivity |
| QVQLVESGGGLVQAGGSLRLSCAASGRTFAKYAMGWYRQAPGKERELVAAITSGGRTNYADSVKGRFTISRDNAKNTVYLQMNSLKPEDTAVYYCAARRYVVGYFQSKMDYWGQGTQVTVSS | high polyreactivity |
| QVQLVESGGGLVQAGGSLRLSCAASGRTFANNAMGWYRQAPGKERELVAAISFSTVSTYYADSVKGRFTISRDNAKYTVYLQMNSLKPEDTAVYYCAARRLGYYRKVKELVYWGQGTQVTVSS | high polyreactivity |
| QVQLVESGGGLVQAGGSLRLSCAASGRTFAPYAMGWYRQAPGKERELVAAISWSGGSTYYADSVKGRFTISRDNAKNTVYLQMNSLKPEDTAVYYCAADGGQTEFDYWGQGTQVTVSS | high polyreactivity |
| QVQLVESGGGLVQAGGSLRLSCAASGRTFAPYAMGWYRQAPGKERQLVAAISQRGGSTYYADSVKGRFTISRDNAKNTVYLQMNSLKPEDTAIYYCAATKYFYRLSSAFSFGTYGYWGQGTQVTVSS | low polyreactivity |
| QVQLVESGGGLVQAGGSLRLSCAASGRTFAPYVMGWYRQAPGKERELVAAITLSGDSTDYADSVKGRFTISRDNAKNTVYLQMNSLKPEDTAVYYCNVEYLSYTSYFHYYEYDYWGQGSQVTVSS | low polyreactivity |
| QVQLVESGGGLVQAGGSLRLSCAASGRTFAQYGMVWYRQAPGKEMELVAAISRRTGSTNYADSVKGRFTISRDNAKNTVYLQMNSLKPEDTAVYYCAARSYSYGVGYGYWGQGTQVTVSS | high polyreactivity |
| QVQLVESGGGLVQAGGSLRLSCAASGRTFARNAMGWYRQAPGKERELVASINRGGRTNYADSVKGRFTISRDNAKNTVYLQMNSLKPEDTAVYYCAKYILGVGPFFSTYDYWGQGTQVTVSS | high polyreactivity |
| QVQLVESGGGLVQAGGSLRLSCAASGRTFARYALGWYRQAPGKERELVAAISWSGGSTYYADSVKGRFTISRDNAKNTVYLQMNSLKPEDTAVDYCAAGYGARSAKFDVYGTNEGDYWGQGTQVTVSS | high polyreactivity |
| QVQLVESGGGLVQAGGSLRLSCAASGRTFARYAMGWYRQAPGKEREFVAGINWSGGGTYYADSVKGRFTISRDNAKNTVYLQMNSLKPEDTAVYYCASYTSVRPKLDYWGLGTQVTVSS | high polyreactivity |
| QVQLVESGGGLVQAGGSLRLSCAASGRTFARYAMGWYRQAPGKERELVAAINRSGGSTYYADSVKGRFTISRDNAKNTVYLQMNSLKPEDTAVYYCNARDPYTYRYSYYYWGQGTQVTVSS | high polyreactivity |
| QVQLVESGGGLVQAGGSLRLSCAASGRTFARYAMGWYRQAPGKERELVAAISSSGGSTYYADSVKGRFTISRDNAKNTVYLQMNSLKQEDTAVYYCVTYRNWWYDYWGQGTQVTVSS | high polyreactivity |
| QVQLVESGGGLVQAGGSLRLSCAASGRTFASNAMGWYRQAPGKERELVAAITRGGSTYYADSVKGRFTISRDNAKNTVYLQMNSLKPEDTAVYYCAADRWWYQNEVDYWGQGTQVTVSS | low polyreactivity |
| QVQLVESGGGLVQAGGSLRLSCAASGRTFASYAMGWYRQAPGKERDFVASISRRGGSTNYADSVKGRFTISRDNAKNTVYLQMNSLIPEDNAVYYCAKRFTLPLSEYDYWGQGTQVTVSS | high polyreactivity |
| QVQLVESGGGLVQAGGSLRLSCAASGRTFASYAMGWYRQAPGKERELVAGITSGGNTYYADSVKGRFTISRDNAKNTVYLQMNSLKPEDTAVYYCNAVRRVSSAGEFDYWGQGTQVTVSS | high polyreactivity |
| QVQLVESGGGLVQAGGSLRLSCAASGRTFASYTMGWYRQAPGKERELVAAISRGGNTYYADSVKGRFTISRDNAKNTVYLQMNSLKPEDTAVYYCAATAVKYDRRFYYWGQGTQVTVSS | high polyreactivity |
| QVQLVESGGGLVQAGGSLRLSCAASGRTFATYAMGWYRQAPGKEREFVAVIDGSGGSTYYADSVKGRFTISRDNAKNTVYLQMNSLKPEDTAVYYCAATSRRKVPNIRKSYGYWGQGTQVTVSS | high polyreactivity |
| QVQLVESGGGLVQAGGSLRLSCAASGRTFATYVMGWYRQAPGKERELVAAISLSGGSTYYADSVKGRFTISRDNAKNTVFLQMNSVKPEDTAVYYCAISWVTSSDYWGQGTQVTVSS | low polyreactivity |
| QVQLVESGGGLVQAGGSLRLSCAASGRTFAVNAMGWYRQAPGTERELVAAISLSGGRTYYADSVKGRFTISRDNAKNTVSLQMNSLKPEDTAVYYCAASRHFARHRGYYFRYDYWGQGTQVTVSS | high polyreactivity |
| QVQLVESGGGLVQAGGSLRLSCAASGRTFAVYAMGWYRQAPGKERELVAAISSTGGTYYADSVKGRFTISRDNAKNTVYLQMNSLKPEDTAVYYCAATFIQVVVNVQLYDYDYWGQGTQVTVSS | low polyreactivity |

— the nanobody polyreactivity screen of Harvey et al. (2022)
